Test results: the supplement of paper PMC9112550, “Optimization of the antimicrobial peptide Bac7 by deep mutational scanning” (BMC Biology, 2022)

System: Escherichia coli TOP10
Experiment: shrunken log2 fold change of peptide-encoding DNA abundance (4.5 h post-induction vs induction); higher = less antimicrobial activity (less host growth inhibition)
Conditions: time post-induction: 4.5 h; library: site-saturation at positions 5, 18, 19, 20
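Further: peptides expressed intracellularly from a pBAD plasmid library in pooled LB shake-flask culture, induced with 0.3% L-arabinose, DNA abundance read by NGS, three biological replicates, DESeq2 with apeglm shrinkage.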

Row | Sequence | shrunken log2 fold change
1 | RRIRVRPPRLPRPRPRPAYRPRP | -0.0828
2 | RRIRGRPPRLPRPRPRPSNYPRP | -0.0111
3 | RRIRVRPPRLPRPRPRPSHVPRP | -0.0313
4 | RRIRGRPPRLPRPRPRPNYRPRP | 0.0016
5 | RRIRERPPRLPRPRPRPITDPRP | -0.00102
6 | RRIRERPPRLPRPRPRPAFAPRP | 0.206
7 | RRIRLRPPRLPRPRPRPHMVPRP | -0.336
8 | RRIRMRPPRLPRPRPRPHMEPRP | -0.0461
9 | RRIRARPPRLPRPRPRPMCFPRP | 0.18
10 | RRIRARPPRLPRPRPRPYGPPRP | -0.264
11 | RRIRSRPPRLPRPRPRPEIGPRP | 0.291
12 | RRIRERPPRLPRPRPRPHCPPRP | -0.0673
13 | RRIRTRPPRLPRPRPRPLCKPRP | -0.257
14 | RRIRFRPPRLPRPRPRPYRRPRP | -0.506
15 | RRIRCRPPRLPRPRPRPGSPPRP | 0.169
16 | RRIRRRPPRLPRPRPRPTTRPRP | 0.941
17 | RRIRDRPPRLPRPRPRPHIKPRP | -0.598
18 | RRIRQRPPRLPRPRPRPIARPRP | -0.0171
19 | RRIRVRPPRLPRPRPRPHYNPRP | -0.366
20 | RRIRNRPPRLPRPRPRPWWYPRP | -0.361
21 | RRIRMRPPRLPRPRPRPFVLPRP | -0.691
22 | RRIRWRPPRLPRPRPRPLRKPRP | 0.944
23 | RRIRPRPPRLPRPRPRPFGVPRP | -0.112
24 | RRIRLRPPRLPRPRPRPGIMPRP | -0.219
25 | RRIRERPPRLPRPRPRPSTTPRP | -0.285

Row | Sequence | shrunken log2 fold change
26 | RRIRFRPPRLPRPRPRPFCRPRP | -0.316
27 | RRIRFRPPRLPRPRPRPHAGPRP | -0.024
28 | RRIRARPPRLPRPRPRPSVQPRP | 0.629
29 | RRIRERPPRLPRPRPRPYVDPRP | -0.0122
30 | RRIRSRPPRLPRPRPRPPEYPRP | -0.154
31 | RRIRKRPPRLPRPRPRPNMQPRP | 0.26
32 | RRIRIRPPRLPRPRPRPIKGPRP | -0.068
33 | RRIRRRPPRLPRPRPRPWARPRP | 0.222
34 | RRIRPRPPRLPRPRPRPPHRPRP | 0.401
35 | RRIRKRPPRLPRPRPRPKTTPRP | 0.0195
36 | RRIRFRPPRLPRPRPRPRSRPRP | -0.016
37 | RRIRTRPPRLPRPRPRPDERPRP | -0.146
38 | RRIRARPPRLPRPRPRPIANPRP | 0.103
39 | RRIRARPPRLPRPRPRPFYMPRP | -0.45
40 | RRIRSRPPRLPRPRPRPYHMPRP | -1.26
41 | RRIRDRPPRLPRPRPRPLVIPRP | -0.0438
42 | RRIRMRPPRLPRPRPRPLKCPRP | -0.0167
43 | RRIRRRPPRLPRPRPRPCVSPRP | 0.0908
44 | RRIRYRPPRLPRPRPRPKKGPRP | -0.444
45 | RRIRIRPPRLPRPRPRPEIDPRP | -0.157
46 | RRIRIRPPRLPRPRPRPAGRPRP | 0.132
47 | RRIRERPPRLPRPRPRPPPTPRP | 0.518
48 | RRIRGRPPRLPRPRPRPRGHPRP | 1.11
49 | RRIRKRPPRLPRPRPRPKIGPRP | 0.295
50 | RRIRVRPPRLPRPRPRPKFGPRP | 0.017
